± gives the standard deviation of the averaged measurements.
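Further: ATP exposure 15 min at 22 °C before imaging.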

The series deals with ATP. Kind of series: switch fluorescence ratio, 500 uM ATP over buffer (Cy3 cluster intensity, sum of 5 cycles each) (fold (ratio)); higher = stronger signal-on switching upon ATP binding; sequences stand for … in TCGTCGGCAGCGTCAGATGTGTATAAGAGACAGTTTTTTTTTTTTTTTTTTTTTTTTT…TC. The conditions noted are these: aptamer strand: ATP DNA aptamer (quencher-CACCTGGGGGAGTATTGCGGAGGAAGG + anchor), 100 nM annealed; ATP concentration: 500 uM. Put shortly:
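Cy3-labelled switching-strand clusters on a modified Illumina MiSeq flow-cell were annealed to 100 nM quencher-labelled ATP aptamer and imaged first in selection buffer, then after 15 min with 500 uM ATP at 22 °C. NaOH stripping and re-annealing separated each of five buffer/ATP cycles, and clusters outside 100-1000 RFU were excluded. The fluorescence ratio sums target-cycle Cy3 intensity over buffer-cycle Cy3 intensity per cluster and averages it per switch-domain sequence.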
For the sequence GGTGACACTT, the switch fluorescence ratio came out at 0.996 ± 0.033. Regarding TTTGGACGTC, the switch fluorescence ratio turned out to be 0.992 ± 0.037. Consider ATTTAACGAG, for which the switch fluorescence ratio was 1.01 ± 0.021. As for GTTAGATGGG, the switch fluorescence ratio was determined as 1 ± 0.034. In the case of AGATGAATGT, the switch fluorescence ratio was found to be 0.987 ± 0.015. On to GGGGAGCCGT, for which the switch fluorescence ratio was found to be 1.03 ± 0.086.

As for TGGTTTTTTA, the switch fluorescence ratio amounted to 0.993 ± 0.025. Turning to ACCATTATTT, the switch fluorescence ratio is 1.03 ± 0.014. As for TGTGGCTAGG, the switch fluorescence ratio was determined as 1.02 ± 0.029. In the case of CGGGGATTGC, the switch fluorescence ratio came to 1.01 ± 0.016. Consider GGGGGAATCA, for which the switch fluorescence ratio was determined as 0.9748 ± 0.0039. As to GAAAAGATTG, the switch fluorescence ratio worked out at 0.972 ± 0.024. On to GGGGGGGATC, for which the switch fluorescence ratio is 1.02 ± 0.045.

As to TTCCATGCGG, the switch fluorescence ratio was 1.02 ± 0.037. On to CAGTTAATTG, for which the switch fluorescence ratio came to 1.03 ± 0.013. In the case of TGGGATAGTG it was 1 ± 0.046; in that of TGGCAGGGTC, 0.9774 ± 0.0077.

With TTGCTCATAT, the switch fluorescence ratio worked out at 1.02 ± 0.049.

As for AGTCTTAGGG, the switch fluorescence ratio is 0.972 ± 0.023. Regarding CTCGCGGCGG, the switch fluorescence ratio was 1.03 ± 0.034.

For the sequence TTTTTCGGCG, the switch fluorescence ratio was determined as 1.01 ± 0.029. For the sequence ATATGGGGGC, the switch fluorescence ratio is 0.972 ± 0.059.

In the case of AGGTTGCGGG, the switch fluorescence ratio was determined as 1 ± 0.014.

For the sequence TTTTGGAATA, the switch fluorescence ratio was 1.02 ± 0.059. CAAAAAGAGT: the switch fluorescence ratio was determined as 1.014 ± 0.009. For TGGGGACTAT, the switch fluorescence ratio is 1.02 ± 0.012. For the sequence TTGCGACGGT, the switch fluorescence ratio turned out to be 1.02 ± 0.023. Take GATGAGAGGT: the switch fluorescence ratio was determined as 0.999 ± 0.015. For CGGGAATTTT, the switch fluorescence ratio is 1 ± 0.013. Regarding TTAAGGCCCG, the switch fluorescence ratio amounted to 1.01 ± 0.012. For AGTTTTGAGA, the switch fluorescence ratio was 0.983 ± 0.022. With AGCAGGGGGG, the switch fluorescence ratio came to 1.06 ± 0.067. In the case of TCGGTTGTGT it was 1.08 ± 0.078. With CATTTTTGTT, the switch fluorescence ratio came to 0.979 ± 0.031.

For GAAATTAAGC, the switch fluorescence ratio is 1.06 ± 0.057. For AGAGAAAAAG the value was 0.957 ± 0.042; for TAGATATGTA, 1.02 ± 0.043.

For CACGCAGGGT, the switch fluorescence ratio amounted to 1.11 ± 0.12. Take GGCGCCTTTT: the switch fluorescence ratio was determined as 0.988 ± 0.033.

With TGGGGCAATT, the switch fluorescence ratio is 1.1 ± 0.06. In the case of ATTTTTAGGG it was 1.02 ± 0.033; in that of CGGTGCTTGT, 1.02 ± 0.037. Take CTGCTTGTGA: the switch fluorescence ratio stood at 1.02 ± 0.026.

Turning to CGTTGTTACA, the switch fluorescence ratio came to 1.04 ± 0.018. In the case of AATCATAGGG, the switch fluorescence ratio was 1.011 ± 0.0087. For TCATGAGCTT, the switch fluorescence ratio amounted to 1.039 ± 0.0015.

As to ACCGGGCCGA, the switch fluorescence ratio turned out to be 1.04 ± 0.016. For AATTAACGGG, the switch fluorescence ratio came to 1.02 ± 0.019. For ATTTGTTACG the value was 1.01 ± 0.046; for ATGTTGTTGT, 0.981 ± 0.033; for GGTGTGTACG, 1.28 ± 0.41. As for GCGGGGCCTG, the switch fluorescence ratio stood at 0.993 ± 0.051. As for TGAGGTCAAA, the switch fluorescence ratio is 1.07 ± 0.041.

For the sequence TGTGATAGGT, the switch fluorescence ratio is 1 ± 0.028. For the sequence TAATGTTTAG, the switch fluorescence ratio was determined as 0.99019 ± 0.00022. As to GGGATGAATA, the switch fluorescence ratio came to 0.982 ± 0.042. For ACAGAAGGTC the value was 0.977 ± 0.015; for TTTGGTATAG, 0.975 ± 0.01; for GGGGGGATGC, 1.07 ± 0.13. Regarding CGTTCAGTTT, the switch fluorescence ratio worked out at 0.9929 ± 0.0028. In the case of CGTATTGCCA, the switch fluorescence ratio came out at 1 ± 0.025.

As to TTGAATAGTT, the switch fluorescence ratio stood at 0.998 ± 0.017. For the sequence GAAATTAGCC, the switch fluorescence ratio worked out at 1.053 ± 0.0092. As to ATTTAATACG, the switch fluorescence ratio amounted to 1.02 ± 0.052. For TTTTGTTACA, the switch fluorescence ratio was determined as 1.011 ± 0.0029. Regarding TTAAGTGGGC, the switch fluorescence ratio came out at 1.12 ± 0.17. For TTTTTTTCCT, the switch fluorescence ratio was 1.02 ± 0.066.

Turning to AAACCGGGAC, the switch fluorescence ratio is 1.55 ± 0.15. With GCACGTCGAA, the switch fluorescence ratio worked out at 1.08 ± 0.032.

On to GTTACTAATG, for which the switch fluorescence ratio is 0.9996 ± 0.0029. Take GGCCCAGGGA: the switch fluorescence ratio is 1.18 ± 0.18.

In the case of ATTGTGGGAA, the switch fluorescence ratio amounted to 0.9843 ± 0.0028. For ATCGGTAGGT, the switch fluorescence ratio was 0.99 ± 0.019. In the case of TAGGAAAGGC, the switch fluorescence ratio worked out at 0.982 ± 0.027. On to AGATAGTCTC, for which the switch fluorescence ratio was 0.991 ± 0.024. Consider GTTTTTCAGG, for which the switch fluorescence ratio was 1 ± 0.017.

As for GCATGCTGGT, the switch fluorescence ratio worked out at 1.01 ± 0.024.

As to GTCAAAGCCA, the switch fluorescence ratio stood at 1.02 ± 0.019. With TGGGTAATGG, the switch fluorescence ratio was 1.01 ± 0.038.

For the sequence GAAAGAGGGT, the switch fluorescence ratio turned out to be 1.03 ± 0.035.

Regarding TTGATCTT, the switch fluorescence ratio worked out at 1.008 ± 0.0042. In the case of TATGTGATGT, the switch fluorescence ratio was 0.981 ± 0.032. Turning to TGCAGGGTGG, the switch fluorescence ratio worked out at 1.05 ± 0.051. For AGTATTTGTA the value was 1 ± 0.02; for AGTTAGGTTA, 1 ± 0.014. On to TAGCCTATTG, for which the switch fluorescence ratio amounted to 0.979 ± 0.038. Take TGGGCCATGT: the switch fluorescence ratio came to 0.9791 ± 0.0065. As to GAGGTTGCCG, the switch fluorescence ratio turned out to be 0.951 ± 0.018. Consider GATTGTGGAG, for which the switch fluorescence ratio was 1.01 ± 0.018. For the sequence ACTATCTATT, the switch fluorescence ratio was determined as 0.997 ± 0.034. GGGTTTAATC: the switch fluorescence ratio turned out to be 1.08 ± 0.077. As for TGCCGGGGCT, the switch fluorescence ratio stood at 0.967 ± 0.037. Regarding GCAGTTATTT, the switch fluorescence ratio stood at 0.966 ± 0.026. In the case of GTTTCCGATT, the switch fluorescence ratio came out at 0.991 ± 0.019.

Take GGGTGTTTTG: the switch fluorescence ratio was found to be 0.996 ± 0.013. Regarding GCTATTGTTC, the switch fluorescence ratio was found to be 0.967 ± 0.039.

Turning to TGCTTGGGGA, the switch fluorescence ratio stood at 0.983 ± 0.082. Regarding GCGGAGGGGG, the switch fluorescence ratio turned out to be 1 ± 0.035. In the case of TTCGTAATCG, the switch fluorescence ratio was determined as 1.07 ± 0.093. As for AAGTCGGGGG, the switch fluorescence ratio amounted to 1 ± 0.029.

With TGTGATGGAG, the switch fluorescence ratio was 0.979 ± 0.033. Turning to ATGCCGGTAT, the switch fluorescence ratio came to 0.999 ± 0.053. As to ATTAGGTTGG, the switch fluorescence ratio was 0.987 ± 0.027. With TTACGGGCGA, the switch fluorescence ratio turned out to be 0.998 ± 0.029. On to CAATTTAATA, for which the switch fluorescence ratio stood at 1.01 ± 0.019. In the case of CTAATCAGCT it was 0.977 ± 0.019. For the sequence GGGGATGGCT, the switch fluorescence ratio is 0.992 ± 0.039. In the case of AGTTGTGCCT it was 1.015 ± 0.0036. Consider AATCTCTGGG, for which the switch fluorescence ratio amounted to 0.992 ± 0.0015. For the sequence TCTCGGGGCT, the switch fluorescence ratio was 0.97 ± 0.011. For GGAATTTGGC, the switch fluorescence ratio came to 1.02 ± 0.052.

For TAGCATCTGT, the switch fluorescence ratio is 1 ± 0.03. For TTTCTTGGGA the value was 1 ± 0.059; for TGATTTACAA, 1.05 ± 0.015; for TGGGTAAAAA, 0.995 ± 0.014. Turning to ATCTGAATGG, the switch fluorescence ratio is 1.12 ± 0.17. With AAAAAGTCGC, the switch fluorescence ratio came to 0.961 ± 0.022. For TCCTTATAGG the value was 1 ± 0.044; for ATAGGTAGGT, 0.996 ± 0.004; for GGGGGGGTCG, 0.983 ± 0.048.

For the origin of these results see the supplement of paper PMC10126150.
